Source: patent publication US20150359861

Biological target: Nicotinamide phosphoribosyltransferase (Nampt) (UniProt P43490)
UniProt P43490, sequence (P43490 whole entry, looked up): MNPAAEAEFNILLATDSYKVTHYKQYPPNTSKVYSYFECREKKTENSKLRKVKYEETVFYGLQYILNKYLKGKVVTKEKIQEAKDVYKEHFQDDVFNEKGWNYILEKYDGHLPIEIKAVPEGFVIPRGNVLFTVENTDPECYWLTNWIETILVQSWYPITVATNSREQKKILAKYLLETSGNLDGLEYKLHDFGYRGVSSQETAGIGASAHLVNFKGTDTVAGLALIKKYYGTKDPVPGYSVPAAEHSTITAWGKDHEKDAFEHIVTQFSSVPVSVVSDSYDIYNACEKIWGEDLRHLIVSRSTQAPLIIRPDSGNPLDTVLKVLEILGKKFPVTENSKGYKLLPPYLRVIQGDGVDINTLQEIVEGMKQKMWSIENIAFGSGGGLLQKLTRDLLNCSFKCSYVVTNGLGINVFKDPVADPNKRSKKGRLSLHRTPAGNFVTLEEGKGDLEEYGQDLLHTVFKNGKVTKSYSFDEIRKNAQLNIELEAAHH

Substance: purified recombinant human Eno1
- Nampt activity (Cyclex Nampt activity assay kit on anti-Nampt immunoprecipitates of lysates from myotubes treated with 500 or 1000 ug/ml Eno1 for 48 hours): Eno1 treatment increased Nampt activity
